Biological target: monoclonal antibody against the N-terminal FERM domain of moesin
Test: cell-based or functional assay

Substance: N-terminal FERM domain of human moesin protein (from UniProt P26038 1-297)
- CD62P FD (Mnx), platelet activation induced by anti-moesin N-terminal domain antibody, inhibitor N-terminal FERM domain: 5.79 FD (Mnx)
- CD63 FD (Mnx), platelet activation induced by anti-moesin N-terminal domain antibody, inhibitor N-terminal FERM domain: 6.3 FD (Mnx)
- PAIR, platelet aggregation induced by anti-moesin N-terminal domain antibody (2 µg/mL), inhibitor N-terminal domain (0.2 mM): 90.2%
- PAR (%), platelet aggregation induced by anti-moesin N-terminal domain antibody (2 µg/mL), inhibitor N-terminal domain (0.2 mM): 6.03%

Reference: patent US20130323264A1
